# How the values were obtained:
# [1] = PASC assay, cellobiose dose-response (Example 1); type: biochemical; conditions: FIG. 3
# Experimental: This assay measures the activity of CBH I using PASC as the substrate. During the assay, the concentration of PASC is monitored by a fluorescent signal derived from calcofluor binding to PASC (ex/em 365/440 nm). The assay is initiated by mixing enzyme (15 μl) and reaction buffer (85 μl of 0.2% PASC, 200 mM MES, pH 6), and then incubating at 35° C. while shaking at 225 RPM. After 2 hours, one reaction volume of calcofluor stop solution (100 μg/ml in 500 mM glycine pH 10) is added and fluorescence read-outs obtained (ex/em 365/440 nm).
# Tolerance to cellobiose (or inhibition caused by cellobiose) was tested in two ways in the CBH I assays. A direct-dose tolerance method can be applied to all of the CBH I assays (i.e., 4-MUL, PASC, and/or bagasse assays), and entails the exogenous addition of a known amount of cellobiose into assay mixtures. A different indirect method entails the addition of an excess amount of β-glucosidase (BG) to PASC and bagasse assays (typically, 1 mg β-glucosidase/g solids loaded). BG will enzymatically hydrolyze the cellobiose generated during these assays; therefore, CBH I activity in the presence of BG can be taken as a measure of activity in the absence of cellobiose. Furthermore, when activity in the presence and absence of BG are similar, this indicates tolerance to cellobiose.
# [2] = 4-MUL assay with and without cellobiose (Example 1); type: biochemical; conditions: T. reesei CBH I and R268/R411 variants; 250 mg/L cellobiose
molecule,measurement,setting,value
"wild type T. reesei CBH I: wild type T. reesei CBH I (SEQ ID NO:2) (protein, listed as Trichoderma reesei) MYRKLAVISAFLATARAQSACTLQSETHPPLTWQKCSSGGTCTQQTGSVVIDANWRWTHATNSSTNCYDGNTWSSTLCPDNETCAKNCCLDGAAYASTYGVTTSGNSLSIGFVTQSAQKNVGARLYLMASDTTYQEFTLLGNEFSFDVDVSQLPCGLNGALYFVSMDADGGVSKYPTNTAGAKYGTGYCDSQCPRDLKFINGQANVEGWEPSSNNANTGIGGHGSCCSEMDIWEANSISEALTPHPCTTVGQEICEGDGCGGTYSDNRYGGTCDPDGCDWNPYRLGNTSFYGPGSSFTLDTTKKLTVVTQFETSGAINRYYVQNGVTFQQPNAELGSYSGNELNDDYCTAEEAEFGGSSFSDKGGLTQFKKATSGGMVLVMSLWDDYYANMLWLDSTYPTNETSSTPGAVRGSCSTSSGVPAQVESQSPNAKVTFSNIKFGPIGSTGNPSGGNPPGGNPPGTTTTRRPATTTGSSPGPTQSHYGQCGGIGYSGPTVCASGTTCQVLNPYYSQCL",IC50 of cellobiose (PASC assay),[1],3000 µg/mL
same,cellobiose concentration at which inhibition starts (PASC assay),[1],around 1 g/L
same,% activity remaining in 4-MUL assay in the presence of cellobiose,[2],23%

# Reference: US20140287471A1, “VARIANT CBH I POLYPEPTIDES WITH REDUCED PRODUCT INHIBITION” (BP CORPORATION NORTN AMERICA INC., priority 2011, published 2014)
